Data as given in IntAct's records for PubMed 17923090.

Each substance was assayed against stat1_human STAT1 (UniProt P42224).
Sequence of stat1_human STAT1 (P42224 whole entry): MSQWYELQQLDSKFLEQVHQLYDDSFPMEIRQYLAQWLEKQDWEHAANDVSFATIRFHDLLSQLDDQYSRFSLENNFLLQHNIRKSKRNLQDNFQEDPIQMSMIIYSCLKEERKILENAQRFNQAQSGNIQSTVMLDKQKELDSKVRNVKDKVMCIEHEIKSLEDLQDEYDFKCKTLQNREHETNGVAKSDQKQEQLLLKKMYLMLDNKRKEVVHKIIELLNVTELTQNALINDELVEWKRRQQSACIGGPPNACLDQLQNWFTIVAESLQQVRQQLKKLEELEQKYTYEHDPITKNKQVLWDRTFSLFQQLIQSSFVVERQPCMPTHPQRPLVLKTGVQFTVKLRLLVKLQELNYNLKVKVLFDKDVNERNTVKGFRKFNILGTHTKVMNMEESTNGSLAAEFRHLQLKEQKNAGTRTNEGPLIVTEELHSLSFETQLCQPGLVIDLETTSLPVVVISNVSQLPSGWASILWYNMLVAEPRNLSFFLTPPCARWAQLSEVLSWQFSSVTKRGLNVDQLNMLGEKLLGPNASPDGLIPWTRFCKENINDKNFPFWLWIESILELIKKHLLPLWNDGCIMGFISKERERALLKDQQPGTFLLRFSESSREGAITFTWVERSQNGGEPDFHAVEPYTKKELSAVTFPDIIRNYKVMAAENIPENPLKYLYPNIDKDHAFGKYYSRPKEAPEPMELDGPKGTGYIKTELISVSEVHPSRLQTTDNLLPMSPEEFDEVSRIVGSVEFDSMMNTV

| Substance | effect of a mutation on the interaction |
| --- | --- |
| Signal transducer and activator of transcription 2 (Homo sapiens), P52630 K384R | decreasing interaction |
| Signal transducer and activator of transcription 2 (Homo sapiens), P52630 K390R | increasing interaction |
| Signal transducer and activator of transcription 2 (Homo sapiens), P52630 K415R | increasing interaction |
| Signal transducer and activator of transcription 2 (Homo sapiens), P52630 K419R | decreasing interaction |
